# Data: article PMC12784961, “Structure of Bacillus subtilis Ku-mediated DNA synaptic complex”
# Changes are numbered by the printed parent chain.
# T1: bsKu core N32E (Bacillus subtilis, UniProt O34859 18-244, N32E)
# T1 sequence: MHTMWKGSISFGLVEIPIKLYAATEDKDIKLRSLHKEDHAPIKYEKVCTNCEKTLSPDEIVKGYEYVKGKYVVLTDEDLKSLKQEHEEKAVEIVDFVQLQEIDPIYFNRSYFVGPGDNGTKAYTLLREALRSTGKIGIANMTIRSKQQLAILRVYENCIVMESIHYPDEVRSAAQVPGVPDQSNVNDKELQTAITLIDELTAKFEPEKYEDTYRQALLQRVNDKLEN
# T2: bsKu core L30G (Bacillus subtilis, UniProt O34859 18-244, L30G)
# T2 sequence: T1 sequence with L13G, E15N
# B1: 13-bp DNA (dsDNA)
# DNA 1: GTACCTGTAGAAG
# DNA 2: CTTCTACAGGTAC
# How the values were obtained:
# bsKu core N32E = biological target: T1, bsKu core N32E; assay: EMSA; no significant loss of binding; EMSA: 20 mM HEPES pH 7.5, 150 mM KCl, 1 mM DTT, 50 nM DNA, 30 min at 4°C, 15% native PAGE in 0.5x TBE, SYBR Gold; SEC: same buffer, protein:DNA 1:2, 1 h at 4°C, Superdex 75; settings: protein: recombinant; tags: N-terminal 8xHis-MBP, cleaved; chain copies: 2; blunt
# bsKu core L30G = biological target: T2, bsKu core L30G; assay: as above; settings: protein: recombinant; tags: N-terminal 8xHis-MBP, cleaved; chain copies: 2; blunt
binder,measurement,setting,value
B1,binding result,bsKu core N32E,binds
same,binding result,bsKu core L30G,binds
